# Laboratory results published in the supplement of paper PMC9732359.
# ± gives the uncertainty stated by the source.
# Assay: protein stability index of a GFP-peptide fusion (yeast GPS) (PSI 1-4); higher = more stable; sorted into four equal gates, so the index is relative within each strain
# Outline: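 The protein stability index of a peptide was calculated by multiplying its read frequency in each gate by that gate's number and adding the products. The peptides were tiled 17-residue stretches of yeast proteins, fused downstream of GFP on a Cherry-expressing plasmid and carried in yeast as a pooled library. Mid-log cultures in leucine-free medium were sorted into four equal gates by GFP/Cherry ratio, and each gate's plasmids were PCR-amplified and Illumina-sequenced.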
Sequence,protein stability index (doa10∆),protein stability index (pdr5∆),protein stability index (san1∆),protein stability index (ubr1∆)
NATVNLAMEAILNELEV [YJR042W/NUP85],2.7 ± 0.11,3 ± 0.11,2.58 ± 0.12,2.55 ± 0.11
NAVSFDTTFSDFKEVED [SRB4],3.13 ± 0.043,2.53 ± 0.039,2.6 ± 0.039,2.74 ± 0.039
NCFFDVIVPQIVLDEVR [DIS3],1.62 ± 0.12,1.55 ± 0.17,–,1.47 ± 0.12
NDFTTKLINIKKFDISN [MED1],1.67 ± 0.08,1.47 ± 0.096,1.56 ± 0.28,2.28 ± 0.27
NDICSVENYETSSAFFY [SIR4],2.82 ± 0.046,2.88 ± 0.051,2.64 ± 0.05,2.77 ± 0.053
NDLEVGVATKDKFFTLS [SCL1],3.18 ± 0.084,3.33 ± 0.067,3.08 ± 0.072,2.89 ± 0.12
NDLQSETKTKKEKIKGL [SMC4],3.32 ± 0.2,3.25 ± 0.25,–,3.5 ± 0.12
NDNEDDDEEYDYNDVEV [BRR2],3.28 ± 0.077,3.22 ± 0.079,3.34 ± 0.06,3.4 ± 0.052
NDNIGANRSRFNNEAPP [SMB1],2.64 ± 0.076,3.02 ± 0.047,2.54 ± 0.065,3.01 ± 0.067
NDPEYMDTSDDAFVATA [DLS1],3.1 ± 0.17,3.49 ± 0.16,3.33 ± 0.14,–
NDQALIKVLLRQNRRPE [RET1],1.83 ± 0.087,2.45 ± 0.094,3.01 ± 0.079,2.77 ± 0.059
NDRESVLTNIEVYRTSL [SMC3],2.94 ± 0.13,3.21 ± 0.15,3.05 ± 0.12,2.97 ± 0.081
NDSFKGLITNKMWFDVQ [PRP8],2.98 ± 0.16,2.99 ± 0.085,3.03 ± 0.11,3.08 ± 0.087
NDVTRRTVKNILVSVLP [CSL4],2.89 ± 0.12,3.12 ± 0.1,3.11 ± 0.08,3.09 ± 0.11
NEDDALIYGISDEERDD [AAR2],3.29 ± 0.12,3.53 ± 0.13,3.62 ± 0.066,3.2 ± 0.12
NEDMVRRANFYKENEAM [SNF12],3.33 ± 0.11,3.48 ± 0.087,3.39 ± 0.057,3.48 ± 0.1
NEDSKAFHTAVLRLNAI [NUT1],3.26 ± 0.058,3.34 ± 0.055,3.41 ± 0.047,3.27 ± 0.051
NEGVPSPMLSISNLTQE [FAS1],2.84 ± 0.055,2.94 ± 0.062,2.96 ± 0.058,3.12 ± 0.059
NEIEGKNEETPQNEKPP [RPC25],2.76 ± 0.21,3.14 ± 0.15,2.22 ± 0.11,3.3 ± 0.078
NEIKQLGSDSSDGHNSE [SRB4],2.6 ± 0.072,2.8 ± 0.084,2.31 ± 0.078,3 ± 0.09
NEISRNGTMINEVIDKL [PCI8],2.59 ± 0.067,2.51 ± 0.066,2.48 ± 0.072,2.78 ± 0.065
NELMRWPIVQKTYEPVL [RPN5],2.25 ± 0.06,2.39 ± 0.057,2.24 ± 0.075,1.83 ± 0.037
NEQAARAANQGALPPDL [CYT1],3.18 ± 0.058,3.32 ± 0.049,2.94 ± 0.053,3.03 ± 0.042
NERELNVFARLSRLLSL [RPC82],2.02 ± 0.16,2.07 ± 0.11,2.79 ± 0.13,2.5 ± 0.06
NESEKDQWLEEYKKHFP [UBP6],3.31 ± 0.16,3.6 ± 0.19,–,3.32 ± 0.11
NETSEQLVPIRLEFDQD [SNF5],3.19 ± 0.097,3.12 ± 0.099,3.31 ± 0.11,3.29 ± 0.07

Sequence,protein stability index (doa10∆),protein stability index (pdr5∆),protein stability index (san1∆),protein stability index (ubr1∆)
NEYPVADAVTKDLKLRR [REC8],3.08 ± 0.1,3.23 ± 0.095,3.28 ± 0.038,3.23 ± 0.041
NFGNNGAGGLNPFTSAT [YOR098C/NUP1],2.89 ± 0.055,3.21 ± 0.09,3.15 ± 0.045,3.04 ± 0.052
NFKSYRGVTKVGFGESN [SMC1],3.03 ± 0.096,2.89 ± 0.13,2.53 ± 0.15,2.72 ± 0.11
NFNSVNDANITSNKEGF [SSN2],3 ± 0.11,3.25 ± 0.084,3.32 ± 0.054,3.12 ± 0.065
NFPVRQWSIEIVLLDDE [TAF14],1.57 ± 0.07,1.5 ± 0.055,2.37 ± 0.093,2.19 ± 0.059
NFRTMQQQQMQQQQQQQ [SSN2],–,3.15 ± 0.23,2.37 ± 0.12,–
NGASVPINLHPSKLVIT [RPL26A],1.75 ± 0.058,1.83 ± 0.06,1.96 ± 0.067,1.41 ± 0.05
NGAVGKREGKTRLLNIV [ISW2],3.27 ± 0.12,2.95 ± 0.11,3.03 ± 0.051,2.97 ± 0.088
NGDNLYGNDEEVLFYED [RPN4],3.07 ± 0.1,3.22 ± 0.12,3.1 ± 0.096,2.95 ± 0.074
NGDNSTTTNTDQNNATM [SNF12],2.4 ± 0.069,2.2 ± 0.069,2.52 ± 0.097,1.99 ± 0.051
NGFAPISEVMEDRNQRI [FAS1],3.44 ± 0.093,3.3 ± 0.06,3.42 ± 0.05,3.31 ± 0.038
NGGVGVDVELITSINVE [FAS2],2.93 ± 0.051,3.18 ± 0.056,3.11 ± 0.05,3.13 ± 0.05
NGKLTSANERLFGNRPS [YML031W/NDC1],2.72 ± 0.11,3.03 ± 0.076,2.69 ± 0.094,2.94 ± 0.066
NGLAIRRAAYGVVRYVM [RPS3],2.06 ± 0.057,1.91 ± 0.064,1.77 ± 0.074,1.61 ± 0.053
NGNLEEEFAYVDPARRQ [MED6],3.62 ± 0.21,3.44 ± 0.12,3.71 ± 0.1,2.74 ± 0.085
NGNTSSKTVVTLSEPVQ [FAS1],2.91 ± 0.072,3.14 ± 0.066,2.96 ± 0.059,2.96 ± 0.055
NGRLNKCGVISPRFNVK [RPS22A],2.58 ± 0.29,2.85 ± 0.23,2.88 ± 0.2,3.22 ± 0.11
NGSSDASSLRFGNSLSN [YDL088C/ASM4],2.77 ± 0.071,2.76 ± 0.075,2.69 ± 0.05,2.56 ± 0.1
NGTISKTGKKNKVAKKN [SRP14],3.51 ± 0.16,3.45 ± 0.19,3.09 ± 0.13,3.17 ± 0.076
NGVRALFHSCTRIQYVD [GRR1],2.08 ± 0.088,2.31 ± 0.055,1.86 ± 0.068,2.59 ± 0.051
NGWEKYLHNVELGEKKN [ISW2],1.7 ± 0.087,1.8 ± 0.14,1.65 ± 0.16,2.56 ± 0.092
NHNQFECKGCDNKIDIY [RPB2],3.06 ± 0.044,3.19 ± 0.047,3.06 ± 0.034,3.1 ± 0.037
NHSLQHQNESSAASIPP [RPN4],2.94 ± 0.057,3 ± 0.058,2.83 ± 0.062,3.12 ± 0.037
NIDSSAQFTFGKAATAK [YOR098C/NUP1],3.12 ± 0.099,3.07 ± 0.14,3.22 ± 0.13,3.1 ± 0.072
NIEEMARVILYLKNVLF [SIN4],2.23 ± 0.075,2.31 ± 0.079,2.01 ± 0.11,2.05 ± 0.037
NIFSEAVKNKYNVGKQL [PRP28],1.55 ± 0.085,2.43 ± 0.11,1.82 ± 0.14,2.37 ± 0.076

Sequence,protein stability index (doa10∆),protein stability index (pdr5∆),protein stability index (san1∆),protein stability index (ubr1∆)
NIKIDAKPALFERFINA [MCD1],1.76 ± 0.053,2.8 ± 0.095,2.3 ± 0.1,2.03 ± 0.066
NIKTIAETLAEELINAA [RPS5],2.29 ± 0.067,2.87 ± 0.073,2.85 ± 0.057,2.46 ± 0.048
NIKTSEWDLYPQGFSSV [REC8],2.91 ± 0.26,2.82 ± 0.2,–,–
NILPFLWGPHGLNSDAE [ECM29],2.86 ± 0.21,2.71 ± 0.16,2.54 ± 0.14,2.42 ± 0.2
NIRGNTIRQIILPDSLN [SMD1],2.87 ± 0.15,2.94 ± 0.12,2.76 ± 0.16,3.27 ± 0.099
NKDMIKNLVKVLESRVN [CSN12],2.32 ± 0.23,2.63 ± 0.15,1.58 ± 0.18,1.75 ± 0.15
NKINSRNSWNFALIDYF [BRN1],2.13 ± 0.2,1.27 ± 0.075,1.11 ± 0.11,1.1 ± 0.073
NKLSGILADEMGLGKTL [ISW2],3.1 ± 0.088,3.23 ± 0.13,3.15 ± 0.049,2.68 ± 0.096
NKTDAQAPTTGFSFGSQ [YJL041W/NSP1],2.91 ± 0.064,2.98 ± 0.06,3.28 ± 0.077,3.07 ± 0.069
NKVGSTGSLMGGNSTQN [YGR119C/NUP57],3.02 ± 0.076,3.38 ± 0.098,3.19 ± 0.059,3.17 ± 0.053
NKVHETSSKSSSLSAII [YDL088C/ASM4],2.67 ± 0.044,2.83 ± 0.053,2.81 ± 0.054,2.8 ± 0.035
NKVQIMIATNVAARGLD [PRP28],1.45 ± 0.061,1.5 ± 0.078,1.43 ± 0.15,1.19 ± 0.055
NKVSNTVSPTQDKDAIR [SIR2],2.98 ± 0.052,3.26 ± 0.07,3.17 ± 0.056,3.11 ± 0.054
NLDAAAAGTSQARTATL [RPC10],2.65 ± 0.17,3.15 ± 0.15,2.73 ± 0.1,2.86 ± 0.096
NLDYLFELIELVTPKSF [NUT1],2.85 ± 0.057,3 ± 0.082,3.09 ± 0.062,3.31 ± 0.063
NLFPLKPKMLPIPSKPT [SRP68],2.38 ± 0.11,2.55 ± 0.093,2.43 ± 0.16,2.61 ± 0.081
NLKGRPYTGWVDSKTKE [FAS2],3.03 ± 0.062,2.95 ± 0.047,3.11 ± 0.048,3.04 ± 0.045
NLLHSYMEKGTQLDDLQ [YML103C/NUP188],2.63 ± 0.056,2.49 ± 0.053,2.35 ± 0.052,2.32 ± 0.034
NLLKDEGVTPGRIRTTR [SSN3],3.1 ± 0.26,2.87 ± 0.23,3.26 ± 0.12,–
NLNDAGLALQLFKKLKE [RPN2],–,2.69 ± 0.23,2.51 ± 0.24,3.19 ± 0.28
NLPEEERKQIHEFKLIV [GRR1],2.13 ± 0.29,3.35 ± 0.24,–,2.73 ± 0.13
NLPEHIVPGTYIQERNP [RPS10A],2.64 ± 0.069,2.62 ± 0.068,2.7 ± 0.047,2.68 ± 0.045
NLQPISTPENVPRLFDL [SMC4],2.89 ± 0.11,2.93 ± 0.084,2.6 ± 0.12,2.48 ± 0.064
NLRLLNSIDSTSRIELE [ECM29],2.91 ± 0.094,3.08 ± 0.077,2.92 ± 0.064,2.98 ± 0.057
NLRLLVEENRVRYTTSV [DLS1],2.33 ± 0.071,2.65 ± 0.056,2.08 ± 0.079,2.43 ± 0.048
NLSAFKIVYIAPLKALV [BRR2],1.55 ± 0.054,1.54 ± 0.051,1.49 ± 0.12,1.56 ± 0.062
